Measurements from article PMC8809517, “Cofactor-independent RNA editing by a synthetic S-type PPR protein”.
Changes are numbered by the printed parent chain.

T1: GFP-9S library array, motif 4 ND N98I;D124P (synthetic construct, N98I;D124P)
T1 chain: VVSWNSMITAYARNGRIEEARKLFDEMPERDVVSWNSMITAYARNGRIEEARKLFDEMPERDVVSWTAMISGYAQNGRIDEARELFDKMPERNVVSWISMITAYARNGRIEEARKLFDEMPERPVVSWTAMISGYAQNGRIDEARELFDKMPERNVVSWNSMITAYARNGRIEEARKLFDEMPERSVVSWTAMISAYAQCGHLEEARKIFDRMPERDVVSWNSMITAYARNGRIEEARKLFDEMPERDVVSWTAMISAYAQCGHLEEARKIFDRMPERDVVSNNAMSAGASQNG

T2: GFP-9S library array, motif 4 ND D124W (synthetic construct, D124W)
T2 chain: T1 chain with I98N, P124W

T3: GFP-9S library array, motif 4 ND N98D;D124L (synthetic construct, N98D;D124L)
T3 chain: T1 chain with I98D, P124L

T4: GFP-9S library array, motif 4 ND N98R;D124N (synthetic construct, N98R;D124N)
T4 chain: T1 chain with I98R, P124N

T5: GFP-9S library array, motif 4 ND N98E;D124Y (synthetic construct, N98E;D124Y)
T5 chain: T1 chain with I98E, P124Y


Experiments:
Test in all cases: high-throughput RNA pulldown from lysate on Ni-NTA beads; HRP: 50 mM Tris pH 8, 150 mM NaCl, 1 mM beta-mercaptoethanol, 50 ug/ml BSA, 3 ug/ml yeast RNA, 0.5% heparin; ITC and FP: Tris pH 8, 200 mM KCl, 5% glycerol; MST: 50 mM Tris pH 8, 200 mM NaCl, 1 mM DTT, BSA, heparin, 0.05% Tween 20
Settings in all cases: tags: N-terminal His-eGFP
[1] = target: T1, GFP-9S library array, motif 4 ND …
[2] = target: T2, GFP-9S library array, motif 4 ND D124W
[3] = target: T3, GFP-9S library array, motif 4 ND …
[4] = target: T4, GFP-9S library array, motif 4 ND …
[5] = target: T5, GFP-9S library array, motif 4 ND …

Row | Binder | Kd ([1]; label: 5' IRDye 800CW) [nM] | Kd ([2]; label: 5' IRDye 800CW) [nM] | Kd ([3]; label: 5' IRDye 800CW) [nM] | Kd ([4]; label: 5' IRDye 800CW) [nM] | Kd ([5]; label: 5' IRDye 800CW) [nM] | Kd ([1]; label: 5' Cy5) [nM] | Kd ([2]; label: 5' Cy5) [nM] | Kd ([3]; label: 5' Cy5) [nM] | Kd ([4]; label: 5' Cy5) [nM] | Kd ([5]; label: 5' Cy5) [nM]
1 | AUUAAACGUGA (ssRNA) [IR-rpoA-A] | 266 | 164 | 90.5 | 200 | 450 | – | – | – | – | –
2 | AUUAGACGUGA (ssRNA) [Cy5-rpoA-G] | – | – | – | – | – | 112 | 89.4 | 52.3 | 118 | 187
3 | AUUAUACGUGA (ssRNA) [IR-rpoA-U] | 269 | 210 | 408 | 95.9 | 480 | – | – | – | – | –
4 | AUUACACGUGA (ssRNA) [Cy5-rpoA] | – | – | – | – | – | 132 | 78.7 | 133 | 98 | 231
